Reference: patent publication US20030049729

T1: human fibrinogen fragments, P02671
T1 chain 1: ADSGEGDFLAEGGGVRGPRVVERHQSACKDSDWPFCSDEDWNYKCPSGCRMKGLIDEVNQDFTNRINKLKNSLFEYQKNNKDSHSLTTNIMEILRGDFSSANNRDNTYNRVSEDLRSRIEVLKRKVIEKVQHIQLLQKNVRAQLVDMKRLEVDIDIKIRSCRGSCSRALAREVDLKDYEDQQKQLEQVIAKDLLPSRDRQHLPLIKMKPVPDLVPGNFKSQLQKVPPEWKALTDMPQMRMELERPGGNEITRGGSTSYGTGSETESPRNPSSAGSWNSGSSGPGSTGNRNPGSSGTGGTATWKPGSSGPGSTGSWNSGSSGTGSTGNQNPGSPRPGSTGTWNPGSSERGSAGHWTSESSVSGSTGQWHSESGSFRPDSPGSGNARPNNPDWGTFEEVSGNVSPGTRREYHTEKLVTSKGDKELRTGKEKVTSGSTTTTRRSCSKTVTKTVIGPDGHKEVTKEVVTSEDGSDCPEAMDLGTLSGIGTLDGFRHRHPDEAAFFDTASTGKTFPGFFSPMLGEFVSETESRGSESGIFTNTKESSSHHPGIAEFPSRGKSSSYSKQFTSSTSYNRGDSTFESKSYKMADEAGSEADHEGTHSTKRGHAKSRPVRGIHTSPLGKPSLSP
T1 chain 2: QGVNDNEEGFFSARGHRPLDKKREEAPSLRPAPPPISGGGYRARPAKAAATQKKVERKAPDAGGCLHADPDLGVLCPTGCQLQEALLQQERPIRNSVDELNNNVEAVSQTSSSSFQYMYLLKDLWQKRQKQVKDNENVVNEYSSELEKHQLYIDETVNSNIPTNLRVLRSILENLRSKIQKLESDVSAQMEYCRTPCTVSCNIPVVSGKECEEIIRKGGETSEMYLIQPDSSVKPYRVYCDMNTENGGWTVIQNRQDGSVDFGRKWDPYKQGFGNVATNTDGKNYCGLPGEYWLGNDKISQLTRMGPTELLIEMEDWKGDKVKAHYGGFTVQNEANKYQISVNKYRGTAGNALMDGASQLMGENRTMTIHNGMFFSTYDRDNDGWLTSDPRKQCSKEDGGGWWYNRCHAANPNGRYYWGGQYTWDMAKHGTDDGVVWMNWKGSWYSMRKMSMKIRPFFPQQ
T1 chain 3: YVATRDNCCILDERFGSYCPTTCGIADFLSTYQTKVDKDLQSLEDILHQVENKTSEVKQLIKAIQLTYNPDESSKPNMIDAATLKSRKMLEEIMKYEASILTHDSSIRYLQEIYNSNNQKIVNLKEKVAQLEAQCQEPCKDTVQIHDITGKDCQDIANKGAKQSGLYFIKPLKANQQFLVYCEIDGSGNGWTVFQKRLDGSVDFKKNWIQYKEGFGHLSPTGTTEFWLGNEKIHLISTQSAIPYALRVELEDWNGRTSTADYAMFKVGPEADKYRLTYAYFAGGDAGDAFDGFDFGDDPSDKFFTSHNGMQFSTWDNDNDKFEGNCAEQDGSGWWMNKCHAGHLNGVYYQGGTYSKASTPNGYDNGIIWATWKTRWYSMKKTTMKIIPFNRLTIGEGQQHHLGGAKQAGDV

B1: standard melanoma tPA 86/670 (protein)
chain: SYQVICRDEKTQMIYQQHQSWLRPVLRSNRVEYCWCNSGRAQCHSVPVKSCSEPRCFNGGTCQQALYFSDFVCQCPEGFAGKCCEIDTRATCYEDQGISYRGTWSTAESGAECTNWNSSALAQKPYSGRRPDAIRLGLGNHNYCRNPDRDSKPWCYVFKAGKYSSEFCSTPACSEGNSDCYFGNGSAYRGTHSLTESGASCLPWNSMILIGKVYTAQNPSAQALGLGKHNYCRNPDGDAKPWCHVLKNRRLTWEYCDVPSCSTCGLRQYSQPQFRIKGGLFADIASHPWQAAIFAKHRRSPGERFLCGGILISSCWILSAAHCFQERFPPHHLTVILGRTYRVVPGEEEQKFEVEKYIVHKEFDDDTYDNDIALLQLKSDSSRCAQESSVVRTVCLPPADLQLPDWTECELSGYGKHEALSPFYSERLKEAHVRLYPSSRCTSQHLLNRTVTDNMLCAGDTRSGGPQANLHDACQGDSGGPLVCLNDGRMTLVGIISWGLGCGQKDVPGVYTKVTNYLDWIRDNMRP
B2: recombinant-K2S (r-K2S), kringle 2 plus serine protease portion of tPA, expressed in non-gpIII fusion form in XM[K2S] (protein)
chain: SEGNSDCYFGNGSAYRGTHSLTESGASCLPWNSMILIGKVYTAQNPSAQALGLGKHNYCRNPDGDAKPWCHVLKNRRLTWEYCDVPSCSTCGLRQYSQPQFRIKGGLFADIASHPWQAAIFAKHRRSPGERFLCGGILISSCWILSAAHCFQERFPPHHLTVILGRTYRVVPGEEEQKFEVEKYIVHKEFDDDTYDNDIALLQLKSDSSRCAQESSVVRTVCLPPADLQLPDWTECELSGYGKHEALSPFYSERLKEAHVRLYPSSRCTSQHLLNRTVTDNMLCAGDTRSGGPQANLHDACQGDSGGPLVCLNDGRMTLVGIISWGLGCGQKDVPGVYTKVTNYLDWIRDNMRP

Experiments:
[1] = target: T1, human fibrinogen fragments, P02671
[2] = target: plasminogen
plasminogen, sequence (P00747 20-810): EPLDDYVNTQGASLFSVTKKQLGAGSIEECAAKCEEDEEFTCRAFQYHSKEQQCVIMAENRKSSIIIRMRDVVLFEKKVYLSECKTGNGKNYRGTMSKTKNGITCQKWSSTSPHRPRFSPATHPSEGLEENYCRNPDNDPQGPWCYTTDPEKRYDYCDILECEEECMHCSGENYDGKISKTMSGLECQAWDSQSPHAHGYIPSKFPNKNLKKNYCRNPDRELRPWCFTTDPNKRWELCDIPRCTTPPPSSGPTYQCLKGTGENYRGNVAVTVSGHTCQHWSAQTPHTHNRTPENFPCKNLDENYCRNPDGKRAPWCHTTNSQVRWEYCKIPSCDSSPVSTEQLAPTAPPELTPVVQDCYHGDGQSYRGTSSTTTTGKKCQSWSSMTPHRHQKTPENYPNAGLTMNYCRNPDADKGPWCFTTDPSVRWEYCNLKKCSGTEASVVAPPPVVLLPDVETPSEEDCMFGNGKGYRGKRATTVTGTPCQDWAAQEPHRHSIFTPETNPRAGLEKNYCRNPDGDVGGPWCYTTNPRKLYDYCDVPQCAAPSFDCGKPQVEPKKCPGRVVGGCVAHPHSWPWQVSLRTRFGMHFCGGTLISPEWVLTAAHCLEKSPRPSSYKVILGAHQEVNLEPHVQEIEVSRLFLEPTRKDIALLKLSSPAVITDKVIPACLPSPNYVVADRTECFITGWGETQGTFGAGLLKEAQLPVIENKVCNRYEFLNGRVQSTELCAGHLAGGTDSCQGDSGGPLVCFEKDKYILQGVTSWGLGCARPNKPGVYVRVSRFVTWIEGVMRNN

Protein	enzymatic activity without fibrinogen [1]	copolymerized plasminogen polyacrylamide gel electrophoresis [2]	fibrinogen-dependent enzymatic activity (culture supernatant r-K2S) [2]	fibrinogen-dependent enzymatic activity (periplasmic r-K2S) [2]
B1	standard melanoma tPA showed some activity	The positive control lane of standard melanoma tPA also demonstrated enzymatic activity at 66 and 72 kDa positions	–	–
B2	Without fibrinogen no enzymatic activity of the r-K2S purified from culture supernatant was observed	Transparent areas of serine protease digested plasminogen were observed only in the ammonium sulfate precipitated culture supernatants of XM[K2S] at 34 and 37 kDa postions	7 IU/ml	notably low enzymatic activity, which was below the sensitivity of the test (0.25 IU/ml)
